{"source": "patent US20110008258A1", "about": "“METHODS RELATING TO BREATHING DISORDERS” (SAMSARA MEDICIN AB, priority 2007, published 2011)", "molecules": {"B1": {"name": "IL-1β: Recombinant mouse interleukin-1β (Nordic Biosite AB), pro-inflammatory cytokine given i.p. to neonatal mice (protein, UniProt P10749 118-269, looked up)", "Interleukin-1 beta": "VPIRQLHYRLRDEQQKSLVLSDPYELKALHLNGQNINQQVIFSMSFVQGEPSNDKIPVALGLKGKNLYLSCVMKDGTPTLQLESVDPKQYPKKKMEKRFVFNKIEVKSKVEFESAEFPNWYISTSQAEHKPVFLGNNSGQDIIDFTMESVSS"}}, "key": {"[1]": {"tested_on": "IL-1β-induced respiratory depression", "conditions": "cited from earlier work"}, "[2]": {"target": "T1, mPGES-1 enzyme (Homo sapiens, UniProt O14684)", "T1 sequence (O14684 1-152)": "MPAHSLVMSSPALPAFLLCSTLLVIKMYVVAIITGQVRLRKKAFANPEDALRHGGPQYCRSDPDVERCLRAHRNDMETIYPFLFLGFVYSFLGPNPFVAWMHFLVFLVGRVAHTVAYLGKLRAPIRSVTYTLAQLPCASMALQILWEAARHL", "conditions": "reported in refs 75-77; read-out: IC50, inhibition of mPGES-1; cited from earlier work"}, "[3]": {"tested_on": "mPGES-1^+/+ mice", "assay": "Whole-body flow plethysmography after i.p. IL-1β, mPGES-1+/+ mice", "assay_type": "in vivo", "method": "(§1) A Plexiglas chamber (35 ml) was connected to a highly sensitive direct airflow sensor (0-200 ml/min; TRN3100, Kent Scientific Corporation, Litchfield, Conn., USA). The flow signal was amplified by a four-channel amplifier (P/N 770 S/N 5; SENSElab, Somedic Sales, Hörby, Sweden), converted to digital signal, and recorded at 100 Hz by an online computer using DasyLab software (Datalog GmbH & Co. KG, Mönchengladbach, Germany). Respiratory frequency (fR, breaths/min), tidal volume (VT, μl/breath), and minute ventilation (VE, μl/min) were calculated. […] As described previously, the chamber was calibrated by repeatedly injecting standardized volumes of air (5-200 μl) with preset precision syringes (Hamilton Bonaduz AG, Switzerland) (6).\n(§2) Each mouse received an intraperitoneal injection (0.01 ml/g) of IL-1β (10 μg/kg) or vehicle. At 70 min, the mouse was placed unrestrained into the plethysmograph chamber. Respiration was assessed during 4 min of normoxia (21% O2) followed by 1 min of hyperoxia (100% O2). After a 5 min recovery period in normoxia, the respiratory response to anoxia (100% N2) was examined. Finally, 100% O2 was administered for 8 min, and the ability to autoresuscitate was evaluated. Skin temperature was recorded at baseline, at 70 min, and after removal from the chamber. Rectal temperature was not measured as rectal probe placement may alter respiratory behavior. The anogenital distance was measured to approximate gender.\n(§3) Periods of calm respiration without movement artefact were selected for analysis. Mean fR, VT, and VE values during normoxia and hyperoxia as well as the anoxic response (i.e., hyperpnea, primary apnea, gasping, secondary apnea, and autoresuscitation) were analyzed as described previously (6, the disclosure of which is expressly incorporated herein by reference). Survival was recorded for all animals. Apnea was defined as cessation of breathing for three respiratory cycles. Regularity of breathing was quantified using the coefficient of variation (C.V.) (i.e., SD divided by mean of breath-by-breath interval during 60 periods).\n(§4) As there is a variable response to anoxia based upon age (53), we attempted to perform all recordings at age P9; however, in an effort to minimize confounding age-related effects, weight was used as a correlate of age and only animals with weights within 1 SD of the population mean weight were included in the anoxia and survival analyses (6)."}, "[4]": {"tested_on": "mPGES-1^−/− mice", "assay": "Whole-body flow plethysmography after i.p. IL-1β, mPGES-1−/− mice", "assay_type": "in vivo", "method": "as §1, §2, §3, §4"}, "[5]": {"tested_on": "mPGES-1", "assay": "mPGES-1 activity in brain membrane fraction after IL-1β", "assay_type": "in vivo, mice", "method": "Newborn mouse brains (n=33) were homogenized in 0.1M KPi (potassium inorganic phosphate) buffer containing 0.25M sucrose, 1× complete protease inhibitor (Roche Diagnostics) and 1 mM reduced glutathione followed by sonication. Membrane fraction was isolated by subcellular fractionation. mPGES-1 activity was measured in the membrane fraction as described previously (52, the disclosure of which is expressly incorporated herein by reference)."}, "[6]": {"tested_on": "EP3R^−/− mice", "assay": "Whole-body flow plethysmography after i.p. IL-1β, EP3R−/− mice", "assay_type": "in vivo", "method": "as §1, §2\nas §3, with “periods). […]” for “periods).”"}, "[7]": {"conditions": "9 d-old mPGES-1+/+ mice, IL-1β i.p., hyperoxia (100% O2)"}, "[8]": {"conditions": "9 d-old mPGES-1+/+ mice, IL-1β i.p., normoxia"}, "[9]": {"conditions": "mPGES-1+/+ mice, anoxia at 80 min after IL-1β"}, "[10]": {"conditions": "9 d-old mPGES-1−/− mice, IL-1β i.p., hyperoxia (100% O2)"}, "[11]": {"conditions": "9 d-old mPGES-1−/− mice, IL-1β i.p., normoxia"}, "[12]": {"conditions": "mPGES-1−/− mice, anoxia at 80 min after IL-1β"}, "[13]": {"conditions": "EP3R wildtype mice, 90 min after IL-1β"}}, "data": [{"molecule": "COc1ccc2c(c1)c(CC(=O)O)c(C)n2C(=O)c1ccc(Cl)cc1", "note": "[indomethacin]", "values": [{"measurement": "effect on respiratory depression induced by IL-1β", "setting": "[1]", "result": "attenuates the respiratory depression"}, {"measurement": "effect on adverse effects of IL-1β on hypoxic gasping and anoxic survival", "setting": "[1]; neonatal rats", "result": "attenuates the adverse effects"}]}, {"molecule": "CCCCC/C=C\\C\\C=C/C=C/C=C/[C@@H](SC[C@H](NC(=O)CC[C@H](N)C(=O)O)C(=O)NCC(=O)O)[C@@H](O)CCCC(=O)O", "note": "[leukotriene C4]", "values": [{"measurement": "IC50", "setting": "[2]", "result": 5, "unit": "µM"}]}, {"molecule": "CSc1ccc(/C=C2/C(C)=C(CC(=O)O)c3cc(F)ccc32)cc1", "note": "[sulindac sulfide]", "values": [{"measurement": "IC50", "setting": "[2]", "result": 80, "unit": "µM"}]}, {"molecule": "B1", "values": [{"measurement": "fR, normoxia", "setting": "[3]; 9 d-old mPGES-1+/+ mice, IL-1β 10 μg/kg i.p., normoxia, mean±SEM", "result": "224 ± 5", "unit": "breaths/min"}, {"measurement": "VE, hyperoxia", "setting": "[3]; [7]", "result": "628 ± 43", "unit": "µL/min/g"}, {"measurement": "VT, hyperoxia", "setting": "[3]; [7]", "result": "3.9 ± 0.2", "unit": "μl/br/g"}, {"measurement": "fR, hyperoxia", "setting": "[3]; [7]", "result": "155 ± 7", "unit": "breaths/min"}, {"measurement": "VE, normoxia", "setting": "[3]; [8]", "result": "730 ± 38", "unit": "µL/min/g"}, {"measurement": "VT, normoxia", "setting": "[3]; [8]", "result": "3.2 ± 0.2", "unit": "μl/br/g"}, {"measurement": "anoxic survival", "setting": "[3]; mPGES-1+/+ mice, 5 min anoxia at 80 min after IL-1β i.p.", "result": "significantly reduced anoxic survival"}, {"measurement": "Hyperpnea fR", "setting": "[3]; mPGES-1+/+ mice, anoxia (100% N2) at 80 min after IL-1β", "result": "390 ± 11", "unit": "breaths/min"}, {"measurement": "Gasping Response Duration", "setting": "[3]; [9]", "result": "82 ± 7"}, {"measurement": "Gasping Response Gasp #", "setting": "[3]; [9]", "result": "30 ± 2"}, {"measurement": "Gasping Response Gasp fR", "setting": "[3]; [9]", "result": "23 ± 1"}, {"measurement": "Hyperpnea Duration", "setting": "[3]; [9]", "result": "61 ± 2"}, {"measurement": "VE, hyperoxia", "setting": "[4]; [10]", "result": "795 ± 67", "unit": "µL/min/g"}, {"measurement": "VT, hyperoxia", "setting": "[4]; [10]", "result": "3.9 ± 0.3", "unit": "μl/br/g"}, {"measurement": "fR, hyperoxia", "setting": "[4]; [10]", "result": "206 ± 11", "unit": "breaths/min"}, {"measurement": "VE, normoxia", "setting": "[4]; [11]", "result": "660 ± 41", "unit": "µL/min/g"}, {"measurement": "VT, normoxia", "setting": "[4]; [11]", "result": "2.7 ± 0.1", "unit": "μl/br/g"}, {"measurement": "fR, normoxia", "setting": "[4]; [11]", "result": "245 ± 7", "unit": "breaths/min"}, {"measurement": "Hyperpnea fR", "setting": "[4]; mPGES-1−/− mice, anoxia (100% N2) at 80 min after IL-1β", "result": "338 ± 24", "unit": "breaths/min"}, {"measurement": "Gasping Response Duration", "setting": "[4]; [12]", "result": "146 ± 23"}, {"measurement": "Gasping Response Gasp #", "setting": "[4]; [12]", "result": "36 ± 3"}, {"measurement": "Gasping Response Gasp fR", "setting": "[4]; [12]", "result": "18 ± 2"}, {"measurement": "Hyperpnea Duration", "setting": "[4]; [12]", "result": "57 ± 2"}, {"measurement": "anoxic survival", "setting": "[4]; mice lacking mPGES-1, 5 min anoxia at 80 min after IL-1β i.p.", "result": "did not decrease survival"}, {"measurement": "mPGES-1 activity (PGE2), brainstem", "setting": "[5]; [13]", "result": "1111±49", "unit": "pmol/min/mg protein"}, {"measurement": "mPGES-1 activity (PGE2), cortex", "setting": "[5]; [13]", "result": "710±44", "unit": "pmol/min/mg protein"}, {"measurement": "brainstem mPGES-1 activity compared to control mice", "setting": "[5]; IL-1β-treated mice exposed to anoxia (100% N2, 5 min)", "result": "four-times higher activity"}, {"measurement": "cortex mPGES-1 activity", "setting": "[5]; between 90 and 180 min after IL-1β", "result": "remained unchanged"}, {"measurement": "mPGES-1 activity", "setting": "[5]; mice with genetic deletion of mPGES-1 gene, IL-1β and anoxia", "result": "negligible activity"}, {"measurement": "brainstem mPGES-1 activity compared to saline-treated mice", "setting": "[5]; wildtype mice, 90 min after IL-1β", "result": "approximately two-fold higher activity"}, {"measurement": "increase in brainstem mPGES-1 activity", "setting": "[5]; wildtype mice, 180 min after IL-1β", "result": "four-fold increase"}, {"measurement": "hypoxic ventilatory response", "setting": "[6]; EP3R−/− mice, IL-1β i.p.", "result": "unable to affect the hypoxic ventilatory response"}, {"measurement": "ventilation during normoxia or hyperoxia", "setting": "[6]; EP3R−/− mice, IL-1β i.p.", "result": "did not alter ventilation"}, {"measurement": "anoxic survival", "setting": "[6]; mice lacking EP3R, 5 min anoxia at 80 min after IL-1β i.p.", "result": "did not decrease survival"}]}]}
